From the supplement of paper PMC9112550, “Optimization of the antimicrobial peptide Bac7 by deep mutational scanning” (BMC Biology, 2022) come the findings set out here.

The data set deals with Escherichia coli TOP10. Description: shrunken log2 fold change of peptide-encoding DNA abundance (4.5 h post-induction vs induction); higher = less antimicrobial activity (less host growth inhibition). The settings on record: time post-induction: 4.5 h; library: site-saturation at positions 5, 18, 19, 20.
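Note: peptides expressed intracellularly from a pBAD plasmid library in pooled LB shake-flask culture, induced with 0.3% L-arabinose, DNA abundance read by NGS, three biological replicates, DESeq2 with apeglm shrinkage.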

In the case of RRIRIRPPRLPRPRPRPAACPRP, the “shrunken log2 fold change” value was determined as 0.156.

Take RRIRARPPRLPRPRPRPTYEPRP: the “shrunken log2 fold change” value amounted to 0.179.

For RRIRMRPPRLPRPRPRPAQLPRP, the “shrunken log2 fold change” value is 0.101.

RRIRQRPPRLPRPRPRPNVDPRP: the “shrunken log2 fold change” value was -0.0229.

For the sequence RRIRRRPPRLPRPRPRPQEFPRP, the “shrunken log2 fold change” value was found to be 0.041.

In the case of RRIRRRPPRLPRPRPRPTLCPRP, the “shrunken log2 fold change” value turned out to be 0.581.

For the sequence RRIRDRPPRLPRPRPRPPACPRP, the “shrunken log2 fold change” value was 0.0727.

RRIRDRPPRLPRPRPRPMQTPRP: the “shrunken log2 fold change” value is 0.0424.

Consider RRIRRRPPRLPRPRPRPLPDPRP, for which the “shrunken log2 fold change” value turned out to be 0.112.

In the case of RRIRMRPPRLPRPRPRPDFHPRP, the “shrunken log2 fold change” value was -0.129.

In the case of RRIRERPPRLPRPRPRPWSRPRP, the “shrunken log2 fold change” value was 0.0483.

Take RRIRERPPRLPRPRPRPARFPRP: the “shrunken log2 fold change” value was 0.168.

In the case of RRIRMRPPRLPRPRPRPVYDPRP, the “shrunken log2 fold change” value is -0.399.

Take RRIRSRPPRLPRPRPRPMSDPRP: the “shrunken log2 fold change” value is -0.195.

With RRIRHRPPRLPRPRPRPIIDPRP, the “shrunken log2 fold change” value was -0.0219.

Turning to RRIRSRPPRLPRPRPRPATIPRP, the “shrunken log2 fold change” value stood at 0.115.

For RRIRSRPPRLPRPRPRPKTYPRP, the “shrunken log2 fold change” value is -0.543.

Consider RRIRPRPPRLPRPRPRPNTPPRP, for which the “shrunken log2 fold change” value was -0.153.

As for RRIRTRPPRLPRPRPRPFRSPRP, the “shrunken log2 fold change” value is -0.144.

For the sequence RRIRFRPPRLPRPRPRPMLLPRP, the “shrunken log2 fold change” value is -0.128.

Turning to RRIRHRPPRLPRPRPRPAYGPRP, the “shrunken log2 fold change” value is -0.075.

Take RRIRLRPPRLPRPRPRPQQTPRP: the “shrunken log2 fold change” value turned out to be 0.168.

Consider RRIRPRPPRLPRPRPRPTMTPRP, for which the “shrunken log2 fold change” value turned out to be 0.0633.

In the case of RRIRNRPPRLPRPRPRPFNEPRP, the “shrunken log2 fold change” value was -0.198.

RRIRKRPPRLPRPRPRPDKKPRP: the “shrunken log2 fold change” value is -0.117.

RRIRKRPPRLPRPRPRPYHWPRP: the “shrunken log2 fold change” value was -0.164.

Regarding RRIRYRPPRLPRPRPRPSGIPRP, the “shrunken log2 fold change” value was -0.119.

For RRIRLRPPRLPRPRPRPITLPRP, the “shrunken log2 fold change” value was -0.553.

For the sequence RRIRSRPPRLPRPRPRPEIHPRP, the “shrunken log2 fold change” value is 0.0186.

Consider RRIRKRPPRLPRPRPRPIDRPRP, for which the “shrunken log2 fold change” value was -0.0769.

As to RRIRGRPPRLPRPRPRPQTAPRP, the “shrunken log2 fold change” value was 0.205.

Consider RRIRDRPPRLPRPRPRPRCKPRP, for which the “shrunken log2 fold change” value was -0.0316.

As for RRIRNRPPRLPRPRPRPRKWPRP, the “shrunken log2 fold change” value stood at 0.416.

With RRIRFRPPRLPRPRPRPKNGPRP, the “shrunken log2 fold change” value is -0.0366.

On to RRIRHRPPRLPRPRPRPFRLPRP, for which the “shrunken log2 fold change” value was -0.322.

RRIRFRPPRLPRPRPRPCCCPRP: the “shrunken log2 fold change” value was found to be 0.0783.

Turning to RRIRRRPPRLPRPRPRPPKRPRP, the “shrunken log2 fold change” value was 0.686.

Consider RRIRYRPPRLPRPRPRPVKMPRP, for which the “shrunken log2 fold change” value is -0.392.

Turning to RRIRERPPRLPRPRPRPEQDPRP, the “shrunken log2 fold change” value is -0.0751.

For the sequence RRIRKRPPRLPRPRPRPNMNPRP, the “shrunken log2 fold change” value was found to be 0.394.

As for RRIRFRPPRLPRPRPRPRTYPRP, the “shrunken log2 fold change” value was -0.794.

As to RRIRCRPPRLPRPRPRPLQSPRP, the “shrunken log2 fold change” value came to 0.113.

As to RRIRWRPPRLPRPRPRPADYPRP, the “shrunken log2 fold change” value is -0.123.

As to RRIRCRPPRLPRPRPRPTRHPRP, the “shrunken log2 fold change” value came out at 0.161.

Turning to RRIRPRPPRLPRPRPRPHAKPRP, the “shrunken log2 fold change” value amounted to 1.39.

Take RRIRNRPPRLPRPRPRPVVNPRP: the “shrunken log2 fold change” value is -0.244.

For the sequence RRIRERPPRLPRPRPRPLEWPRP, the “shrunken log2 fold change” value was -0.0018.

Regarding RRIRLRPPRLPRPRPRPSQPPRP, the “shrunken log2 fold change” value was -0.0367.

Turning to RRIRKRPPRLPRPRPRPNYFPRP, the “shrunken log2 fold change” value was -0.303.

Regarding RRIRIRPPRLPRPRPRPWHHPRP, the “shrunken log2 fold change” value was -0.126.

With RRIRPRPPRLPRPRPRPFDVPRP, the “shrunken log2 fold change” value was 0.0778.

For RRIRLRPPRLPRPRPRPPIDPRP, the “shrunken log2 fold change” value turned out to be 0.13.

Regarding RRIRARPPRLPRPRPRPPQEPRP, the “shrunken log2 fold change” value came out at 0.854.

Turning to RRIRRRPPRLPRPRPRPTNHPRP, the “shrunken log2 fold change” value is -0.0627.

Regarding RRIRKRPPRLPRPRPRPCWKPRP, the “shrunken log2 fold change” value worked out at 0.0714.

With RRIRTRPPRLPRPRPRPHFAPRP, the “shrunken log2 fold change” value is -0.227.

Turning to RRIRMRPPRLPRPRPRPYSSPRP, the “shrunken log2 fold change” value is -0.115.

Turning to RRIRYRPPRLPRPRPRPIICPRP, the “shrunken log2 fold change” value is -0.185.

As to RRIRIRPPRLPRPRPRPFYSPRP, the “shrunken log2 fold change” value was -0.476.

As for RRIRDRPPRLPRPRPRPTVIPRP, the “shrunken log2 fold change” value was -0.118.

Regarding RRIRARPPRLPRPRPRPLQKPRP, the “shrunken log2 fold change” value came out at 0.586.

For RRIRDRPPRLPRPRPRPNWQPRP, the “shrunken log2 fold change” value worked out at 0.00408.

Consider RRIRYRPPRLPRPRPRPAFVPRP, for which the “shrunken log2 fold change” value is -0.178.

As for RRIRCRPPRLPRPRPRPKLCPRP, the “shrunken log2 fold change” value stood at 0.0418.

As to RRIRRRPPRLPRPRPRPWWQPRP, the “shrunken log2 fold change” value came out at 0.0834.

As for RRIRNRPPRLPRPRPRPSEYPRP, the “shrunken log2 fold change” value was -0.386.

RRIRCRPPRLPRPRPRPGFWPRP: the “shrunken log2 fold change” value worked out at 0.226.

As to RRIRHRPPRLPRPRPRPMAPPRP, the “shrunken log2 fold change” value was 0.0599.

For the sequence RRIRFRPPRLPRPRPRPAPFPRP, the “shrunken log2 fold change” value was -0.236.

RRIRNRPPRLPRPRPRPKGMPRP: the “shrunken log2 fold change” value is -0.112.

RRIRKRPPRLPRPRPRPSVRPRP: the “shrunken log2 fold change” value was 0.528.

As to RRIRNRPPRLPRPRPRPPKRPRP, the “shrunken log2 fold change” value was 0.497.

For RRIRERPPRLPRPRPRPTLQPRP, the “shrunken log2 fold change” value worked out at 0.125.

As for RRIRVRPPRLPRPRPRPAMMPRP, the “shrunken log2 fold change” value was determined as 0.464.

Consider RRIRVRPPRLPRPRPRPEAIPRP, for which the “shrunken log2 fold change” value was -0.0125.

Consider RRIRKRPPRLPRPRPRPYMHPRP, for which the “shrunken log2 fold change” value was -0.0355.

On to RRIRARPPRLPRPRPRPTKTPRP, for which the “shrunken log2 fold change” value is 0.247.

Regarding RRIRHRPPRLPRPRPRPAICPRP, the “shrunken log2 fold change” value is -0.218.

Regarding RRIRTRPPRLPRPRPRPPEKPRP, the “shrunken log2 fold change” value came to 0.0774.

Regarding RRIRCRPPRLPRPRPRPHDTPRP, the “shrunken log2 fold change” value was -0.427.

RRIRCRPPRLPRPRPRPKSTPRP: the “shrunken log2 fold change” value was -0.137.

As to RRIRKRPPRLPRPRPRPRCSPRP, the “shrunken log2 fold change” value turned out to be 0.305.

RRIRPRPPRLPRPRPRPAQNPRP: the “shrunken log2 fold change” value is -0.105.

With RRIRARPPRLPRPRPRPIEGPRP, the “shrunken log2 fold change” value stood at 0.504.

On to RRIRFRPPRLPRPRPRPWAYPRP, for which the “shrunken log2 fold change” value was -0.201.

On to RRIRNRPPRLPRPRPRPAIAPRP, for which the “shrunken log2 fold change” value amounted to 0.0215.

On to RRIRWRPPRLPRPRPRPYLRPRP, for which the “shrunken log2 fold change” value is -0.37.

As to RRIRMRPPRLPRPRPRPICKPRP, the “shrunken log2 fold change” value was -0.0206.

For RRIRCRPPRLPRPRPRPRPYPRP, the “shrunken log2 fold change” value is -0.0927.

As to RRIRCRPPRLPRPRPRPCLHPRP, the “shrunken log2 fold change” value is -0.824.

For RRIRFRPPRLPRPRPRPECIPRP, the “shrunken log2 fold change” value is -0.04.

On to RRIRHRPPRLPRPRPRPWPSPRP, for which the “shrunken log2 fold change” value is -0.00932.

As to RRIRSRPPRLPRPRPRPSSDPRP, the “shrunken log2 fold change” value is -0.107.

For RRIRTRPPRLPRPRPRPMYFPRP, the “shrunken log2 fold change” value is -0.53.

With RRIRERPPRLPRPRPRPLTIPRP, the “shrunken log2 fold change” value is -0.101.

As for RRIRKRPPRLPRPRPRPKQLPRP, the “shrunken log2 fold change” value is 0.417.

Turning to RRIRDRPPRLPRPRPRPPLYPRP, the “shrunken log2 fold change” value worked out at 0.0303.

On to RRIRDRPPRLPRPRPRPPMRPRP, for which the “shrunken log2 fold change” value worked out at 0.759.

Turning to RRIRNRPPRLPRPRPRPEKIPRP, the “shrunken log2 fold change” value is -0.0207.

As to RRIRSRPPRLPRPRPRPELCPRP, the “shrunken log2 fold change” value was -0.0749.

RRIRSRPPRLPRPRPRPKDVPRP: the “shrunken log2 fold change” value is -0.162.

Turning to RRIRRRPPRLPRPRPRPVENPRP, the “shrunken log2 fold change” value was found to be 0.0788.

With RRIRGRPPRLPRPRPRPVIYPRP, the “shrunken log2 fold change” value was 0.0164.

As for RRIRSRPPRLPRPRPRPNAAPRP, the “shrunken log2 fold change” value was determined as 0.675.

For the sequence RRIRWRPPRLPRPRPRPAMTPRP, the “shrunken log2 fold change” value came to 0.299.

RRIRQRPPRLPRPRPRPYSPPRP: the “shrunken log2 fold change” value is -0.13.

As to RRIRERPPRLPRPRPRPWRWPRP, the “shrunken log2 fold change” value is 0.0174.

Regarding RRIRTRPPRLPRPRPRPASKPRP, the “shrunken log2 fold change” value was -0.05.

In the case of RRIRRRPPRLPRPRPRPIVIPRP, the “shrunken log2 fold change” value was -0.125.

RRIRIRPPRLPRPRPRPFGDPRP: the “shrunken log2 fold change” value was -0.0112.

With RRIRFRPPRLPRPRPRPDMAPRP, the “shrunken log2 fold change” value was -0.108.

Regarding RRIRIRPPRLPRPRPRPCNIPRP, the “shrunken log2 fold change” value is -0.106.

As for RRIRMRPPRLPRPRPRPVMVPRP, the “shrunken log2 fold change” value came to 0.0724.

Consider RRIRKRPPRLPRPRPRPLHLPRP, for which the “shrunken log2 fold change” value is -0.198.

As to RRIRDRPPRLPRPRPRPNKIPRP, the “shrunken log2 fold change” value is -0.457.

For the sequence RRIRKRPPRLPRPRPRPSNMPRP, the “shrunken log2 fold change” value was -0.327.

With RRIRYRPPRLPRPRPRPCIEPRP, the “shrunken log2 fold change” value is -0.0017.

For the sequence RRIRSRPPRLPRPRPRPEMSPRP, the “shrunken log2 fold change” value came to 0.259.

With RRIRSRPPRLPRPRPRPTTSPRP, the “shrunken log2 fold change” value worked out at 0.094.

As for RRIRMRPPRLPRPRPRPLYAPRP, the “shrunken log2 fold change” value stood at 0.063.

On to RRIRPRPPRLPRPRPRPWFIPRP, for which the “shrunken log2 fold change” value was -0.298.

On to RRIRARPPRLPRPRPRPGDIPRP, for which the “shrunken log2 fold change” value was -0.0868.

As for RRIRVRPPRLPRPRPRPDEHPRP, the “shrunken log2 fold change” value was 0.0107.

As to RRIRQRPPRLPRPRPRPLGYPRP, the “shrunken log2 fold change” value is -0.0704.

RRIRERPPRLPRPRPRPTKNPRP: the “shrunken log2 fold change” value is -0.187.
